Among the data in the supplement of paper PMC10567573 are protein stability index values, retold here.

The labels stand for the following.
B1: ZC3H15 (parent)
chain: ENLFTGEDLDELEEELNTLDLEE
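Note: lentivirally expressed fusions sorted by FACS into six bins by GFP to DsRed ratio, PSI derived from sequencing read proportions per bin multiplied by bin number.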

In this data set the parent is B1. As to the kind of experiment: protein stability index of a GFP-peptide fusion (GPS, HEK-293T) (PSI 1-6); higher = more stable. The following applies: c terminus: native.
On to EELFTGEDLDELEEELNTLDLEE [N2E], for which the protein stability index came out at 4.39. On to EVLFTGEDLDELEEELNTLDLEE [N2V], for which the protein stability index worked out at 4.17. The value for EHLFTGEDLDELEEELNTLDLEE [N2H] was 4; that for EQLFTGEDLDELEEELNTLDLEE [N2Q] was 4.71; that for EWLFTGEDLDELEEELNTLDLEE [N2W] was 3.12. The result for EYLFTGEDLDELEEELNTLDLEE [N2Y] reads 4.78. The result for EMLFTGEDLDELEEELNTLDLEE [N2M] reads 4.08. As for ESLFTGEDLDELEEELNTLDLEE [N2S], the protein stability index was found to be 4.6. The result for ETLFTGEDLDELEEELNTLDLEE [N2T] reads 4.23; that for EPLFTGEDLDELEEELNTLDLEE [N2P], 4.24; that for ECLFTGEDLDELEEELNTLDLEE [N2C], 4.28. With EILFTGEDLDELEEELNTLDLEE [N2I], the protein stability index is 3.61. The value for ERLFTGEDLDELEEELNTLDLEE [N2R] was 4.94. As to EKLFTGEDLDELEEELNTLDLEE [N2K], the protein stability index was 3.49. The value for ENLFPGEDLDELEEELNTLDLEE [T5P] was 4.66.

Consider ENLFCGEDLDELEEELNTLDLEE [T5C], for which the protein stability index was 5.08. The result for ENLFGGEDLDELEEELNTLDLEE [T5G] reads 4.5; that for ENLFHGEDLDELEEELNTLDLEE [T5H], 4.56; that for ENLFNGEDLDELEEELNTLDLEE [T5N], 4.41.

Regarding ENLFEGEDLDELEEELNTLDLEE [T5E], the protein stability index stood at 4.65. The value for ENLFMGEDLDELEEELNTLDLEE [T5M] was 4.69; that for ENLFFGEDLDELEEELNTLDLEE [T5F] was 4.19.

Turning to ENLFSGEDLDELEEELNTLDLEE [T5S], the protein stability index was 4.32. The result for ENLFYGEDLDELEEELNTLDLEE [T5Y] reads 4.25. The result for ENLFWGEDLDELEEELNTLDLEE [T5W] reads 4.51; that for ENLFVGEDLDELEEELNTLDLEE [T5V], 3.27. The value for ENLFIGEDLDELEEELNTLDLEE [T5I] was 4.05; that for TNLFTGEDLDELEEELNTLDLEE [E1T] was 4.11; that for SNLFTGEDLDELEEELNTLDLEE [E1S] was 4.42.

With NNLFTGEDLDELEEELNTLDLEE [E1N], the protein stability index was 4.12. Turning to YNLFTGEDLDELEEELNTLDLEE [E1Y], the protein stability index was 3.58.

Consider WNLFTGEDLDELEEELNTLDLEE [E1W], for which the protein stability index was 2.89. The result for VNLFTGEDLDELEEELNTLDLEE [E1V] reads 4.25; that for QNLFTGEDLDELEEELNTLDLEE [E1Q], 4.14; that for PNLFTGEDLDELEEELNTLDLEE [E1P], 4.12. The value for ENLFTHEDLDELEEELNTLDLEE [G6H] was 4.37; that for ENLFTDEDLDELEEELNTLDLEE [G6D] was 4.93. The value for ENLFTYEDLDELEEELNTLDLEE [G6Y] was 4.58; that for ENLFTAEDLDELEEELNTLDLEE [G6A] was 4.82; that for ENLFTNEDLDELEEELNTLDLEE [G6N] was 4.83. ENLFTKEDLDELEEELNTLDLEE [G6K]: the protein stability index turned out to be 4.79. For the variant ENLFTVEDLDELEEELNTLDLEE [G6V], the protein stability index came out at 4.28.

Consider ENLFTSEDLDELEEELNTLDLEE [G6S], for which the protein stability index was found to be 4.88. Take ENLFTQEDLDELEEELNTLDLEE [G6Q]: the protein stability index is 4.41. The result for ENLFTTEDLDELEEELNTLDLEE [G6T] reads 4.81.

On to ENLFTIEDLDELEEELNTLDLEE [G6I], for which the protein stability index was 4.2. As to ENLFTREDLDELEEELNTLDLEE [G6R], the protein stability index is 4.51. The value for ENLFTMEDLDELEEELNTLDLEE [G6M] was 4.68; that for ENLFTFEDLDELEEELNTLDLEE [G6F] was 4.3; that for ENLFTLEDLDELEEELNTLDLEE [G6L] was 4.85. The value for ENNFTGEDLDELEEELNTLDLEE [L3N] was 4.8; that for ENIFTGEDLDELEEELNTLDLEE [L3I] was 4.57; that for ENMFTGEDLDELEEELNTLDLEE [L3M] was 5.09. The result for ENYFTGEDLDELEEELNTLDLEE [L3Y] reads 3.6; that for ENPFTGEDLDELEEELNTLDLEE [L3P], 4.65; that for ENTFTGEDLDELEEELNTLDLEE [L3T], 4.71. Take ENHFTGEDLDELEEELNTLDLEE [L3H]: the protein stability index is 4.39. With ENQFTGEDLDELEEELNTLDLEE [L3Q], the protein stability index was 4.62. The value for ENDFTGEDLDELEEELNTLDLEE [L3D] was 5.09; that for ENVFTGEDLDELEEELNTLDLEE [L3V] was 4.6. In the case of ENEFTGEDLDELEEELNTLDLEE [L3E], the protein stability index amounted to 4.08. The result for ENGFTGEDLDELEEELNTLDLEE [L3G] reads 4.81. The result for ENRFTGEDLDELEEELNTLDLEE [L3R] reads 4.71; that for ENKFTGEDLDELEEELNTLDLEE [L3K], 4.06; that for ENCFTGEDLDELEEELNTLDLEE [L3C], 3.83.

Turning to ENWFTGEDLDELEEELNTLDLEE [L3W], the protein stability index came to 3.55. The value for ENSFTGEDLDELEEELNTLDLEE [L3S] was 5.2; that for ENAFTGEDLDELEEELNTLDLEE [L3A] was 4.1; that for ENLFTGADLDELEEELNTLDLEE [E7A] was 4.55. Take ENLFTGDDLDELEEELNTLDLEE [E7D]: the protein stability index was determined as 4.93. The value for ENLFTGFDLDELEEELNTLDLEE [E7F] was 4.42; that for ENLFTGHDLDELEEELNTLDLEE [E7H] was 4.66; that for ENLFTGMDLDELEEELNTLDLEE [E7M] was 4.69. In the case of ENLFTGNDLDELEEELNTLDLEE [E7N], the protein stability index came to 4.68. In the case of ENLFTGKDLDELEEELNTLDLEE [E7K], the protein stability index amounted to 4.01.

Regarding ENLFTGPDLDELEEELNTLDLEE [E7P], the protein stability index is 4.16. Turning to ENLFTGLDLDELEEELNTLDLEE [E7L], the protein stability index came to 3.98.

With ENLFTGIDLDELEEELNTLDLEE [E7I], the protein stability index was 4.49. For the variant ENLFTGCDLDELEEELNTLDLEE [E7C], the protein stability index turned out to be 4.38. The value for ENLMTGEDLDELEEELNTLDLEE [F4M] was 4.5; that for ENLCTGEDLDELEEELNTLDLEE [F4C] was 5.49. The value for ENLQTGEDLDELEEELNTLDLEE [F4Q] was 4.69. The result for ENLGTGEDLDELEEELNTLDLEE [F4G] reads 4.83. As for ENLITGEDLDELEEELNTLDLEE [F4I], the protein stability index is 5.19.

For ENLHTGEDLDELEEELNTLDLEE [F4H], the protein stability index came out at 4.55.

On to ENLRTGEDLDELEEELNTLDLEE [F4R], for which the protein stability index worked out at 4.67.

In the case of ENLATGEDLDELEEELNTLDLEE [F4A], the protein stability index worked out at 4.68. The result for ENLVTGEDLDELEEELNTLDLEE [F4V] reads 3.57; that for ENLDTGEDLDELEEELNTLDLEE [F4D], 5.08. Consider ENLSTGEDLDELEEELNTLDLEE [F4S], for which the protein stability index came to 5.13. For the variant ENLNTGEDLDELEEELNTLDLEE [F4N], the protein stability index turned out to be 4.74.

On to ENLLTGEDLDELEEELNTLDLEE [F4L], for which the protein stability index worked out at 4.58. The result for ENLETGEDLDELEEELNTLDLEE [F4E] reads 4.31; that for ENLKTGEDLDELEEELNTLDLEE [F4K], 3.66; that for ENLWTGEDLDELEEELNTLDLEE [F4W], 4.5.

For the variant ENLYTGEDLDELEEELNTLDLEE [F4Y], the protein stability index came to 4.6. The result for ENLPTGEDLDELEEELNTLDLEE [F4P] reads 5.03.
